Measured values from IntAct's records for PubMed 21240188.

B1: Fanconi anemia group J protein (Homo sapiens), Q9BX63 (parent)
chain: MSSMWSEYTIGGVKIYFPYKAYPSQLAMMNSILRGLNSKQHCLLESPTGSGKSLALLCSALAWQQSLSGKPADEGVSEKAEVQLSCCCACHSKDFTNNDMNQGTSRHFNYPSTPPSERNGTSSTCQDSPEKTTLAAKLSAKKQASIYRDENDDFQVEKKRIRPLETTQQIRKRHCFGTEVHNLDAKVDSGKTVKLNSPLEKINSFSPQKPPGHCSRCCCSTKQGNSQESSNTIKKDHTGKSKIPKIYFGTRTHKQIAQITRELRRTAYSGVPMTILSSRDHTCVHPEVVGNFNRNEKCMELLDGKNGKSCYFYHGVHKISDQHTLQTFQGMCKAWDIEELVSLGKKLKACPYYTARELIQDADIIFCPYNYLLDAQIRESMDLNLKEQVVILDEAHNIEDCARESASYSVTEVQLRFARDELDSMVNNNIRKKDHEPLRAVCCSLINWLEANAEYLVERDYESACKIWSGNEMLLTLHKMGITTATFPILQGHFSAVLQKEEKISPIYGKEEAREVPVISASTQIMLKGLFMVLDYLFRQNSRFADDYKIAIQQTYSWTNQIDISDKNGLLVLPKNKKRSRQKTAVHVLNFWCLNPAVAFSDINGKVQTIVLTSGTLSPMKSFSSELGVTFTIQLEANHIIKNSQVWVGTIGSGPKGRNLCATFQNTETFEFQDEVGALLLSVCQTVSQGILCFLPSYKLLEKLKERWLSTGLWHNLELVKTVIVEPQGGEKTNFDELLQVYYDAIKYKGEKDGALLVAVCRGKVSEGLDFSDDNARAVITIGIPFPNVKDLQVELKRQYNDHHSKLRGLLPGRQWYEIQAYRALNQALGRCIRHRNDWGALILVDDRFRNNPSRYISGLSKWVRQQIQHHSTFESALESLAEFSKKHQKVLNVSIKDRTNIQDNESTLEVTSLKYSTSPYLLEAASHLSPENFVEDEAKICVQELQCPKIITKNSPLPSSIISRKEKNDPVFLEEAGKAEKIVISRSTSPTFNKQTKRVSWSSFNSLGQYFTGKIPKATPELGSSENSASSPPRFKTEKMESKTVLPFTDKCESSNLTVNTSFGSCPQSETIISSLKIDATLTRKNHSEHPLCSEEALDPDIELSLVSEEDKQSTSNRDFETEAEDESIYFTPELYDPEDTDEEKNDLAETDRGNRLANNSDCILAKDLFEIRTIKEVDSAREVKAEDCIDTKLNGILHIEESKIDDIDGNVKTTWINELELGKTHEIEIKNFKPSPSKNKGMFPGFK

Variants of: B1
Details: with brca1_human BRCA1, P38398
Sequence of brca1_human BRCA1, P38398 (P38398 whole entry, looked up): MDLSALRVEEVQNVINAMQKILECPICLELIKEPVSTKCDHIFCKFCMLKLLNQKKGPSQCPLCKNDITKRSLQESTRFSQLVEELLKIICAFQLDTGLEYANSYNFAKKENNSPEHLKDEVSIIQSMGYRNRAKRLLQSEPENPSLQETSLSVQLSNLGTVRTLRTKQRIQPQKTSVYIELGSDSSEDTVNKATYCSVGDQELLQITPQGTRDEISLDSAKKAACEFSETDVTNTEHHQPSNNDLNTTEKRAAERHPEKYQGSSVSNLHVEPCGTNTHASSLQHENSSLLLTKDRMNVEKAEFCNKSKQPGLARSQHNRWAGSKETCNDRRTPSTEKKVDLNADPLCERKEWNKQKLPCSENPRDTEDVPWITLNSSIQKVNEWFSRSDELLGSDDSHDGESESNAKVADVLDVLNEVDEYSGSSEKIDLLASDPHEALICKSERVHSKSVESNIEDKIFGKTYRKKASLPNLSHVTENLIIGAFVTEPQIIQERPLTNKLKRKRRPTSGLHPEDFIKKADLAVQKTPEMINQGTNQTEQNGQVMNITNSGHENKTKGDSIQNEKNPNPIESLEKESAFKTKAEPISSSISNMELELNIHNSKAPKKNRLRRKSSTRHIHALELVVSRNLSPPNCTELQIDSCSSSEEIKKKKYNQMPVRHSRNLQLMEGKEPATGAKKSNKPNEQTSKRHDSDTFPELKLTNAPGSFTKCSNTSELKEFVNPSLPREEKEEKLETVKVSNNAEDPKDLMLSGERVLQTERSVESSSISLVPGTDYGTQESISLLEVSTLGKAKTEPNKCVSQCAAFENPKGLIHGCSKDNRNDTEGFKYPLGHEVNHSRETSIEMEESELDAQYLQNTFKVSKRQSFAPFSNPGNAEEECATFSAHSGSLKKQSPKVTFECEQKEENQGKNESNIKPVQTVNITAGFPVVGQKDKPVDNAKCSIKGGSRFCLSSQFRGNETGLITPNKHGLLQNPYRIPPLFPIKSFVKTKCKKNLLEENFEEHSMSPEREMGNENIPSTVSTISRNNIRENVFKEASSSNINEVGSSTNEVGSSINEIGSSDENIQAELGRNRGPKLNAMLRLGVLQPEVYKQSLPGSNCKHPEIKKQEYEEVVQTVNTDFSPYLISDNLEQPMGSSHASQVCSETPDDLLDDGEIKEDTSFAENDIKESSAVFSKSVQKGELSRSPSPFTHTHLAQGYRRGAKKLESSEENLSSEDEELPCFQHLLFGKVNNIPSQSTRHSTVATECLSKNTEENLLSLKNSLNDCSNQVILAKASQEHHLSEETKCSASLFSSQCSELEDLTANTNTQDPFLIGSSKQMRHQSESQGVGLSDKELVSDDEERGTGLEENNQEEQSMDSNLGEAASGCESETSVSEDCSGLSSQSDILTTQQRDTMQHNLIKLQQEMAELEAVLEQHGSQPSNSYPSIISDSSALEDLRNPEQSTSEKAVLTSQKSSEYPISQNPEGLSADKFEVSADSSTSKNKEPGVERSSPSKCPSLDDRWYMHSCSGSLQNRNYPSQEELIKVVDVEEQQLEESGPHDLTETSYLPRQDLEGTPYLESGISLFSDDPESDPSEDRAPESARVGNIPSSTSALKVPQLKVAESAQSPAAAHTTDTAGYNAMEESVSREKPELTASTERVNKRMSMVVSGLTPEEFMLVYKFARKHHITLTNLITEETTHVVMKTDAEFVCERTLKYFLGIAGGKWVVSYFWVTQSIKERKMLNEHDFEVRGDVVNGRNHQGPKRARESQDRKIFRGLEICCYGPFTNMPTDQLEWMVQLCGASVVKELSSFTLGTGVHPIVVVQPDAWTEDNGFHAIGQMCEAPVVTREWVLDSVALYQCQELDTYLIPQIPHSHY

| Variant | effect of a mutation on the interaction |
| --- | --- |
| S990A | disrupting interaction |
